{"source": "patent US20240116985A1", "about": "(published 2024)", "binders": {"B1": {"name": "I-225 (peptide)", "peptide": "Ac-FDA[R8]DDAAFV[PyrS][Phe(F5)]WQ-NH2", "modifications": "staple 4-11", "notes": "Stapled peptide composition; also called Ac-Phe-Asp-Ala-R8-Asp-Asp-Ala-Ala-Phe-Val-PyrS-Pff-Trp-Gln-NH2"}, "B2": {"name": "I-228 (peptide)", "peptide": "Ac-FDA[R8]DDAAFV[PyrS][Phe(F5)]WQ-NH2", "modifications": "staple 4-11", "notes": "as for B1"}, "B3": {"name": "I-227 (peptide)", "peptide": "Ac-FDA[R8]DDAAFV[PyrS″][Phe(F5)]WQ-NH2", "modifications": "staple 4-11", "notes": "as for B1"}, "B4": {"name": "I-226 (peptide)", "peptide": "Ac-FDA[R8]DDAAFV[PyrS″][Phe(F5)]WQ-NH2", "modifications": "staple 4-11", "notes": "as for B1"}, "B5": {"name": "I-215 (peptide)", "peptide": "Ac-[αAllylPro]DA[B5]D[d(αMeL)]AAFV[S8]FWQ-NH2", "modifications": "staple 1-4, 4-11", "notes": "Stapled peptide composition; also called Ac-PL3-Asp-Ala-B5-Asp-DaMeL-Ala-Ala-Phe-Val-S8-Phe-Trp-Gln-NH2"}, "B6": {"name": "I-128 (peptide)", "peptide": "Ac-[αAllylPro]DA[B5(10)]DEAAFV[S8]FW-NH2", "modifications": "staple 1-4, 4-11", "notes": "Stitched (two-staple) peptide composition"}, "B7": {"name": "I-111 (peptide)", "peptide": "Ac-FDA[R8]DDAAFV[PyrS″][Phe(4-COOH)]WQ-NH2", "modifications": "staple 4-11", "notes": "Stapled peptide composition; same description as I-110, separate later-eluting HPLC peak (staple isomer)"}, "B8": {"name": "I-110 (peptide)", "peptide": "Ac-FDA[R8]DDAAFV[PyrS″][Phe(4-COOH)]WQ-NH2", "modifications": "staple 4-11; not fully specified; printed as Ac-Phe-Asp-Ala-R8-Asp-Asp-Ala-Ala-Phe-Val-PyrS-4COOHF-Trp-Gln-NH2", "notes": "Stapled peptide composition"}, "B9": {"name": "I-130 (peptide)", "peptide": "Ac-[αAllylPro]DA[B5(4)]DEAAFV[SeN]FWQ-NH2", "modifications": "staple 1-4, 4-11", "notes": "as for B6"}, "B10": {"name": "I-124 (peptide)", "peptide": "XDAXDNAAFVXFWQ", "modifications": "not fully specified; as printed: Ac-PL3-Asp-Ala-B5-Asp-Asn-Ala-Ala-Phe-Val-S8-Phe-Trp-Gln-NH2; staples PL3(1)-B5(4) and B5(4)-S8(11)", "notes": "as for B6"}, "B11": {"name": "I-126 (peptide)", "peptide": "Ac-[αAllylPro]DA[B5(33)]DQAAFV[S8]FWQ-NH2", "modifications": "staple 1-4, 4-11", "notes": "as for B6"}, "B12": {"name": "I-119 (peptide)", "peptide": "Ac-FDA[R8]DDAA[hTyr]V[PyrS(3)]FWQ-NH2", "modifications": "staple 4-11", "notes": "Stapled peptide composition; same description as I-120, separate earlier-eluting HPLC peak (staple isomer)"}}, "note": "Starred links: 1 amine or outer side, 2 acyl side, 3 side chain; linkers in the order of their positions; H or OH if unused. Positions of bridges follow the written chain, without caps; N, C: chain ends. Non-standard residues stand in square brackets, D forms with d. Primed or numbered codes have the meaning given here. B5(10) = 2-amino-2-(pent-4-en-1-yl)hept-6-enoic acid, bis(4-pentenyl)glycine, stitching residue bearing both staples, C=CCCCC(CCCC=C)(N[*:1])C(=O)[*:2]; B5(4) = 2,2-bis(4-pentenyl)glycine = 2-amino-2-(pent-4-en-1-yl)hept-6-enoic acid (stitching residue), C=CCCCC(CCCC=C)(N[*:1])C(=O)[*:2]; PyrS(3) = (S)-1-((allyloxy)carbonyl)-3-aminopyrrolidine-3-carboxylic acid, stapling residue, C=CCOC(=O)N1CC[C@@](N[*:1])(C(=O)[*:2])C1; B5(33) = 2-amino-2-(pent-4-en-1-yl)hept-6-enoic acid (bis-pentenylglycine, two olefin side chains), C=CCCCC(CCCC=C)(N[*:1])C(=O)[*:2]; PyrS″ = (S)-1-((allyloxy)carbonyl)-3-aminopyrrolidine-3-carboxylic acid (stapling residue), C=CCOC(=O)N1CC[C@@](N[*:1])(C(=O)[*:2])C1; SeN = (S)-5-(((allyloxy)carbonyl)(methyl)amino)-2-amino-2-methylpentanoic acid, C=CCOC(=O)N(C)CCC[C@](C)(N[*:1])C(=O)[*:2]; PyrS = (S)-1-((allyloxy)carbonyl)-3-aminopyrrolidine-3-carboxylic acid, C=CCOC(=O)N1CC[C@@](N[*:1])(C(=O)[*:2])C1; B5 = 2-amino-2-(pent-4-en-1-yl)hept-6-enoic acid, C=CCCCC(CCCC=C)(N[*:1])C(=O)[*:2]; Phe(F5) = N[C@@H](Cc1c(F)c(F)c(F)c(F)c1F)C(=O)O; Phe(4-COOH) = N[C@@H](Cc1ccc(C(=O)O)cc1)C(=O)O; 1Nal = N[C@@H](Cc1cccc2ccccc12)C(=O)O; 2Nal = N[C@@H](Cc1ccc2ccccc2c1)C(=O)O; hTyr = N[C@@H](CCc1ccc(O)cc1)C(=O)O; αAllylPro = C=CC[C@@]1(C(=O)O)CCCN1; d(αMeL) = CC(C)C[C@@](C)(N)C(=O)O; hPhe = N[C@@H](CCc1ccccc1)C(=O)O; R8 = C=CCCCCCC[C@@](C)(N)C(=O)O; S8 = C=CCCCCCC[C@](C)(N)C(=O)O", "data": [{"target": "T1, full-length beta-Catenin (Uniprot ID P35222) (Homo sapiens (Human), UniProt P35222 2-781)", "T1 construct": "The AlphaScreen assay used a Histidine (Nickel Chelate) detection kit, so a His tag is likely, but no tag is described; also called B-Catenin; bCat", "T1 sequence": "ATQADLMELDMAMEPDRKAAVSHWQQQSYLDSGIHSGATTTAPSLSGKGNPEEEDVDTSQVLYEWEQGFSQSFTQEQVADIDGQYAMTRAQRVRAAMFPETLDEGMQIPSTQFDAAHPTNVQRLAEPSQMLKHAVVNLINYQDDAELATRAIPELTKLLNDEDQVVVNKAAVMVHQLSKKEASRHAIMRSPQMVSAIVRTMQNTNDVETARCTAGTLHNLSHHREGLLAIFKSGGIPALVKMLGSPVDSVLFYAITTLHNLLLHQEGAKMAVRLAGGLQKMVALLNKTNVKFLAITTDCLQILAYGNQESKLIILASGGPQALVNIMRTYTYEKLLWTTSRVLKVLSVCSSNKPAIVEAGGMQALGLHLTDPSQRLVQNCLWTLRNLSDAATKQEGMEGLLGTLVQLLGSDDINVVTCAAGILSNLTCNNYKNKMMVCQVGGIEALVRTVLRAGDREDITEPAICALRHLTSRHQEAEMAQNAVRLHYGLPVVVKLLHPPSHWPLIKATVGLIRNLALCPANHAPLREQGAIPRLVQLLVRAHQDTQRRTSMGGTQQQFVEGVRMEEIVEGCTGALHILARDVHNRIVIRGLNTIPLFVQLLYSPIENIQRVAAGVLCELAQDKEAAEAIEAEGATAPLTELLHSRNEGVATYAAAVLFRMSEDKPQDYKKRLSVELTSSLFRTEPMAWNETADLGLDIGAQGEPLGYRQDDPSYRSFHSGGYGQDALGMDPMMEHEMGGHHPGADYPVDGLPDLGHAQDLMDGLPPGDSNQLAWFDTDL", "assay": "AlphaScreen competition: full-length beta-catenin + biotin-TCF4(10-53) probe, peptide titrated", "description": "(§1) Equal volume of the titrated peptide was added to the plate and incubated for 15 minutes at 20° C. Then 4 uL of donor and 4 uL acceptor beads at 10 ug/mL were added to the plate, for a 16 uL reaction pool and protected from light for 60 minutes at 20° C. prior to read. Reads were performed on a CLARIOstar plate reader (BMG Labtech) in duplicate, and data were fitted to a 1:1 binding model with hill slope using an in-house script. All provided concentrations are final concentrations.", "units": {"EC50": "µM"}, "values": [{"binder": "B1", "EC50": 7.63}, {"binder": "B2", "EC50": 5.91}, {"binder": "B3", "EC50": 5.91}, {"binder": "B4", "EC50": 7.63}, {"binder": "B5", "EC50": "≥ 10"}]}, {"target": "T2, full-length beta-Catenin (Uniprot ID P35222) (Homo sapiens (Human), UniProt P35222 2-781)", "T2 construct": "also called B-Catenin; bCat", "T2 sequence": "T1 sequence", "assay": "Alphascreen competition; biotin-TCF4(10-53) probe with full-length beta-catenin", "description": "as §1", "units": {"EC50": "µM"}, "values": [{"binder": "Ac-FDA[R8]D[2Nal]AAFV[PyrS″]FWQ-NH2 (staple 4-11; also: earlier-eluting HPLC peak (staple isomer), Stapled peptide composition)", "note": "[I-115]", "EC50": 4.78}, {"binder": "Ac-FDA[R8]DDAA[2Nal]V[PyrS″]FWQ-NH2 (staple 4-11, Stapled peptide composition)", "note": "[I-112]", "EC50": "≥ 10"}, {"binder": "B6", "EC50": 0.907}, {"binder": "Ac-FDA[R8]DDAA[2Nal]V[PyrS″]FWQ-NH2 (staple 4-11, Stapled peptide composition)", "note": "[I-113]", "EC50": 6.2}, {"binder": "Ac-FDA[R8]D[2Nal]AAFV[PyrS″]FWQ-NH2 (staple 4-11; also: later-eluting HPLC peak (staple isomer), Stapled peptide composition)", "note": "[I-116]", "EC50": 3.64}, {"binder": "Ac-FDA[R8]DDAA[hTyr]V[PyrS(3)]FWQ-NH2 (staple 4-11, Stapled peptide composition)", "note": "[I-120]", "EC50": 4.55}, {"binder": "Ac-FDA[R8]DDAA[hPhe]V[PyrS(3)]FWQ-NH2 (staple 4-11, Stapled peptide composition)", "note": "[I-118]", "EC50": 4.36}, {"binder": "B7", "EC50": 7.64}, {"binder": "B8", "EC50": 8.5}, {"binder": "Ac-FDA[R8]DDAA[hPhe]V[PyrS″]FWQ-NH2 (staple 4-11; also: earlier-eluting HPLC peak (staple isomer), Stapled peptide composition)", "note": "[I-117]", "EC50": "≥ 10"}, {"binder": "B9", "EC50": 0.797}, {"binder": "B10", "EC50": 1.28}, {"binder": "B11", "EC50": 1.48}, {"binder": "Ac-FDA[R8]D[1Nal]AAFV[PyrS″]FWQ-NH2 (staple 4-11, Stapled peptide composition)", "note": "[I-114]", "EC50": 4.74}, {"binder": "B12", "EC50": 4.94}]}]}
